In test [1] the target is T1, human C5 (human, UniProt P01031 19-1676). As to the kind of experiment: cell-based or functional assay.
The next test concerns the target human C5 R885H-mmh (human, UniProt P01031 19-1676). The experiment in a line: cell-based or functional assay.
Another test concerns the target human C5 R885C-mmh (human, UniProt P01031 19-1676). The experiment in a line: cell-based or functional assay.
The target in a further test is African green monkey C5 (African green monkey). As to the kind of experiment: cell-based or functional assay.
Test [2] has as its target T1, human C5. The experiment in a line: cell-based or functional assay. This is another data set of the same source.
The target in test [3] is T1, human C5. The experiment in a line: SPR (Biacore), mAb captured, dissociation of human C5 at pH7.4 vs pH6.0, 37°C. Put shortly: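 Anti-C5 mAbs (human IgG4 Fc) captured on an amine-coupled mouse anti-human Fc surface; recombinant C5 dissociation followed by Biacore T200 in PBS-T (0.01M phosphate, 0.15M NaCl, 0.05% Tween-20) at pH7.4 or pH6.0. Dissociative half-life (t½) calculated from kd.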

We go through seven molecules from patent US20170355757A1 (Regeneron, published 2017).

B1: H4H12166P2 (antibody, human IgG4, V domains shown)
VH: QVQLQESGPGLVKPSETLSLTCTVSGDSVSSSYWTWIRQPPGKGLEWIGYIYYSGSSNYNPSLKSRATISVDTSKNQFSLKLSSVTAADTAVYYCAREGNVDTTMIFDYWGQGTLVTVSS
VL: AIQMTQSPSSLSASVGDRVTITCRASQGIRNDLGWYQQKPGKAPKLLIYAASSLQSGVPSRFAGRGSGTDFTLTISSLQPEDFATYYCHQDFNYPWTFGQGTKVEIK
notes: histidine-mutated CDR variant of H4H12166P; human IgG4 (S108P)
Take B1: in the test with human C5 [1], the “Human AP % Max Inhibition, hemolysis assay, 5% NHS” value (shortened to “Human AP % Max Inhibition”) stood at 81.3%; the “Human AP IC50, hemolysis assay, 5% NHS” value amounted to 47.8 nM; the “Human CP % Max Inhibition, hemolysis assay, 5% NHS” value (“Human CP % Max Inhibition” for short) came to 98.2%; the “Human CP IC50, hemolysis assay, 5% NHS” value stood at 15.9 nM. In the test with human C5 R885H-mmh, the “IC50, inhibition of CDC of Daudi cells, C5 depleted human serum and 6.6 nM C5 Variant R885H, 7 nM anti-CD20 antibody” value (“IC50, inhibition … 7 nM anti-CD20 antibody” below) stood at 1.7 nM. Further, the “IC50, inhibition of CDC of Daudi cells, C5 depleted human serum and 6.6 nM C5 Variant R885C, 30 nM anti-CD20 antibody” value (from here on “IC50, inhibition … 30 nM anti-CD20 antibody”) in the test with human C5 R885C-mmh is 1.2 nM. For the same molecule, the “IC50, inhibition of CDC of Daudi cells, 1.66% African Green monkey serum, 10 nM anti-CD20 antibody” value in the test with African green monkey C5 was 9.7 nM. Further, the “IC50, inhibition of CDC of Daudi cells, 1.66% human serum, 2 nM anti-CD20 antibody” value with human C5 [2] came to 3.7 nM. In addition, the “t½ Ratio pH7.4/pH6.0” value with human C5 [3] is 7.3.

B2: H4H12166P5 (antibody, human IgG4, V domains shown)
VH: QVQLQESGPGLVKPSETLSLTCTVSGDSVSSSYWTWIRQPPGKGLEWIGYIYYSGSSNYNPSLKSRATISVDTSKNQFSLKLSSVTAADTAVYYCAREGNVDTTMIHDYWGQGTLVTVSS
VL: AIQMTQSPSSLSASVGDRVTITCRASQGIRNDLGWYQQKPGKAPKLLIYAASSLQSGVPSRFAGRGSGTDFTLTISSLQPEDFATYYCLQDFNYPWTFGQGTKVEIK
notes: as for B1
On to B2, for which, in the test with human C5 [1], the “Human AP % Max Inhibition” value was determined as 77.7%; the “Human AP IC50, hemolysis assay, 5% NHS” value stood at 65.5 nM; the “Human CP % Max Inhibition” value came to 97.1%; the “Human CP IC50, hemolysis assay, 5% NHS” value turned out to be 14.9 nM. Moreover, the “IC50, inhibition … 7 nM anti-CD20 antibody” value in the test with human C5 R885H-mmh stood at 2.1 nM. Further, in the test with human C5 R885C-mmh, the “IC50, inhibition … 30 nM anti-CD20 antibody” value is 1.4 nM. Besides, in the test with African green monkey C5, the “IC50, inhibition of CDC of Daudi cells, 1.66% African Green monkey serum, 10 nM anti-CD20 antibody” value is greater than 30 nM and the “Max % Inhibition of CDC of Daudi cells, 1.66% African Green monkey serum, 10 nM anti-CD20 antibody” value (“Max % Inhibition of CDC of Daudi cells” below) came to 75%. Besides, the “IC50, inhibition of CDC of Daudi cells, 1.66% human serum, 2 nM anti-CD20 antibody” value with human C5 [2] is 4.9 nM. Moreover, in the test with human C5 [3], the “t½ Ratio pH7.4/pH6.0” value came to 7.6.

B3: H4H12166P6 (antibody, human IgG4, V domains shown)
VH: QVQLQESGPGLVKPSETLSLTCTVSGDSVSSSYWTWIRQPPGKGLEWIGYIYYSGSSNYNPSLKSRATISVDTSKNQFSLKLSSVTAADTAVYYCAREGNVDHTMIFDYWGQGTLVTVSS
VL: AIQMTQSPSSLSASVGDRVTITCRASQGIRNDLGWYQQKPGKAPKLLIYAASSLQSGVPSRFAGRGSGTDFTLTISSLQPEDFATYYCLQDFNYPWTFGQGTKVEIK
notes: as for B1
Regarding B3, in the test with human C5 [1], the “Human AP % Max Inhibition” value was determined as 82.4%; the “Human AP IC50, hemolysis assay, 5% NHS” value was 28.4 nM; the “Human CP % Max Inhibition” value was 98.1%; the “Human CP IC50, hemolysis assay, 5% NHS” value turned out to be 10.3 nM. Besides, the “IC50, inhibition … 7 nM anti-CD20 antibody” value in the test with human C5 R885H-mmh worked out at 1.3 nM. The “IC50, inhibition … 30 nM anti-CD20 antibody” value with human C5 R885C-mmh amounted to 0.79 nM. Moreover, the “IC50, inhibition of CDC of Daudi cells, 1.66% African Green monkey serum, 10 nM anti-CD20 antibody” value with African green monkey C5 stood at 9.9 nM. For the same molecule, in the test with human C5 [2], the “IC50, inhibition of CDC of Daudi cells, 1.66% human serum, 2 nM anti-CD20 antibody” value stood at 3 nM. For the same molecule, in the test with human C5 [3], the “t½ Ratio pH7.4/pH6.0” value stood at 8.2.

B4: H4H12166P9 (antibody, human IgG4, V domains shown)
VH: QVQLQESGPGLVKPSETLSLTCTVSGDSVSSSYWTWIRQPPGKGLEWIGYIYYSGSSNYNPSLKSRATISVDTSKNQFSLKLSSVTAADTAVYYCAREGNVDHTMIFDYWGQGTLVTVSS
VL: AIQMTQSPSSLSASVGDRVTITCRASQGIRNDLGWYQQKPGKAPKLLIYAASSLQSGVPSRFAGRGSGTDFTLTISSLQPEDFATYYCLQDFNYPWHFGQGTKVEIK
notes: as for B1
Take B4: in the test with human C5 [1], the “Human AP % Max Inhibition” value was determined as 72.2%; the “Human AP IC50, hemolysis assay, 5% NHS” value came out at 53.5 nM; the “Human CP % Max Inhibition” value was 93.7%; the “Human CP IC50, hemolysis assay, 5% NHS” value was 11.6 nM. The “IC50, inhibition … 7 nM anti-CD20 antibody” value in the test with human C5 R885H-mmh turned out to be 1.7 nM. Further, the “IC50, inhibition … 30 nM anti-CD20 antibody” value in the test with human C5 R885C-mmh stood at 0.77 nM. In addition, in the test with African green monkey C5, the “IC50, inhibition of CDC of Daudi cells, 1.66% African Green monkey serum, 10 nM anti-CD20 antibody” value was greater than 10 nM and the “Max % Inhibition of CDC of Daudi cells” value worked out at 85%. Moreover, the “IC50, inhibition of CDC of Daudi cells, 1.66% human serum, 2 nM anti-CD20 antibody” value with human C5 [2] was 3.9 nM. Also, the “t½ Ratio pH7.4/pH6.0” value with human C5 [3] was 28.

B5: H4H12166P4 (antibody, human IgG4, V domains shown)
VH: QVQLQESGPGLVKPSETLSLTCTVSGDSVSSSYWTWIRQPPGKGLEWIGYIYYSGSSNYNPSLKSRATISVDTSKNQFSLKLSSVTAADTAVYYCAREGNVDTTMIFDYWGQGTLVTVSS
VL: AIQMTQSPSSLSASVGDRVTITCRASQGIRNDLGWYQQKPGKAPKLLIYAASSLQSGVPSRFAGRGSGTDFTLTISSLQPEDFATYYCLQDFNYPWHFGQGTKVEIK
notes: as for B1
Consider B5, for which, in the test with human C5 [1], the “Human AP % Max Inhibition” value amounted to 77%; the “Human AP IC50, hemolysis assay, 5% NHS” value amounted to 31.7 nM; the “Human CP % Max Inhibition” value came to 98.6%; the “Human CP IC50, hemolysis assay, 5% NHS” value worked out at 13.2 nM. The “IC50, inhibition … 7 nM anti-CD20 antibody” value with human C5 R885H-mmh came to 1.5 nM. In addition, the “IC50, inhibition … 30 nM anti-CD20 antibody” value with human C5 R885C-mmh is 0.96 nM. Moreover, in the test with African green monkey C5, the “IC50, inhibition of CDC of Daudi cells, 1.66% African Green monkey serum, 10 nM anti-CD20 antibody” value came out at 7.9 nM. Further, the “IC50, inhibition of CDC of Daudi cells, 1.66% human serum, 2 nM anti-CD20 antibody” value in the test with human C5 [2] stood at 3.5 nM. The “t½ Ratio pH7.4/pH6.0” value in the test with human C5 [3] came to 7.6.

B6: H4H12166P7 (antibody, human IgG4, V domains shown)
VH: QVQLQESGPGLVKPSETLSLTCTVSGDSVSSSYWTWIRQPPGKGLEWIGYIYYSGSSNYNPSLKSRATISVDTSKNQFSLKLSSVTAADTAVYYCAREHNVDTTMIFDYWGQGTLVTVSS
VL: AIQMTQSPSSLSASVGDRVTITCRASQGIRNDLGWYQQKPGKAPKLLIYAASSLQSGVPSRFAGRGSGTDFTLTISSLQPEDFATYYCLQDFNYPWHFGQGTKVEIK
notes: as for B1
As for B6, in the test with human C5 [1], the “Human AP % Max Inhibition” value was found to be 83.2%; the “Human AP IC50, hemolysis assay, 5% NHS” value was found to be 156 nM; the “Human CP % Max Inhibition” value is 93.7%; the “Human CP IC50, hemolysis assay, 5% NHS” value amounted to 24.3 nM. Besides, the “IC50, inhibition … 7 nM anti-CD20 antibody” value in the test with human C5 R885H-mmh was 4.2 nM. For the same molecule, the “IC50, inhibition … 30 nM anti-CD20 antibody” value with human C5 R885C-mmh is 2.3 nM. In the test with African green monkey C5, the “IC50, inhibition of CDC of Daudi cells, 1.66% African Green monkey serum, 10 nM anti-CD20 antibody” value is greater than 60 nM and the “Max % Inhibition of CDC of Daudi cells” value was determined as 61%. Also, the “IC50, inhibition of CDC of Daudi cells, 1.66% human serum, 2 nM anti-CD20 antibody” value with human C5 [2] was 7.3 nM. Besides, the “t½ Ratio pH7.4/pH6.0” value in the test with human C5 [3] is 21.

B7: H4H12166P8 (antibody, human IgG4, V domains shown)
VH: QVQLQESGPGLVKPSETLSLTCTVSGDSVSSSYWTWIRQPPGKGLEWIGYIYYSGSSNYNPSLKSRATISVDTSKNQFSLKLSSVTAADTAVYYCAREGNVDHTMIFDYWGQGTLVTVSS
VL: AIQMTQSPSSLSASVGDRVTITCRASQGIRNDLGWYQQKPGKAPKLLIYAASSLQSGVPSRFAGRGSGTDFTLTISSLQPEDFATYYCHQDFNYPWTFGQGTKVEIK
notes: as for B1
As for B7, in the test with human C5 [1], the “Human AP % Max Inhibition” value worked out at 73.3%; the “Human AP IC50, hemolysis assay, 5% NHS” value is 73 nM; the “Human CP % Max Inhibition” value turned out to be 95.7%; the “Human CP IC50, hemolysis assay, 5% NHS” value stood at 14.1 nM. For the same molecule, the “IC50, inhibition … 7 nM anti-CD20 antibody” value with human C5 R885H-mmh amounted to 2.1 nM. Moreover, in the test with human C5 R885C-mmh, the “IC50, inhibition … 30 nM anti-CD20 antibody” value worked out at 1.2 nM. Moreover, in the test with African green monkey C5, the “IC50, inhibition of CDC of Daudi cells, 1.66% African Green monkey serum, 10 nM anti-CD20 antibody” value is greater than 20 nM and the “Max % Inhibition of CDC of Daudi cells” value came out at 79%. In addition, the “IC50, inhibition of CDC of Daudi cells, 1.66% human serum, 2 nM anti-CD20 antibody” value with human C5 [2] turned out to be 4.1 nM. The “t½ Ratio pH7.4/pH6.0” value with human C5 [3] turned out to be 36.
